Patent US20150299305A1

What was measured:
Assay in all cases: SPR, antibody immobilized, monomeric FcγR injected, steady state, pH 7.4; SPR, monomeric FcγR
[1] = target: Human FcγRI (CD64) (human) (UniProt P12314)
[2] = target: Human FcγRIIIa (CD16a) (human) (UniProt P08637)
[3] = target: Human FcγRIIIb (CD16b) (human) (UniProt O75015)
Human FcγRIIIb (CD16b) (human), sequence (O75015 17-200 limits assumed): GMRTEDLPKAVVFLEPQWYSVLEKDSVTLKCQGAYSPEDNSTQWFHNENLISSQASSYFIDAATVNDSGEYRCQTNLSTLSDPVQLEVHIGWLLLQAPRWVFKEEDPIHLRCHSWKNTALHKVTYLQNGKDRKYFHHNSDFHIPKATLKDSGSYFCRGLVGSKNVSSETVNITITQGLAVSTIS

Human FcγRIIIa (CD16a) (human), sequence (P08637 17-208 limits assumed): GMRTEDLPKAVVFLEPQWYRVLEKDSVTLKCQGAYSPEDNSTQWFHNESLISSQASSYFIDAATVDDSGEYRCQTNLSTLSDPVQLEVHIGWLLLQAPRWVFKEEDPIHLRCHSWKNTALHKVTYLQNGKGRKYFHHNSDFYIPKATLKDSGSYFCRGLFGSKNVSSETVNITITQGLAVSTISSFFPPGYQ
Human FcγRI (CD64) (human), sequence (P12314 16-288 limits assumed): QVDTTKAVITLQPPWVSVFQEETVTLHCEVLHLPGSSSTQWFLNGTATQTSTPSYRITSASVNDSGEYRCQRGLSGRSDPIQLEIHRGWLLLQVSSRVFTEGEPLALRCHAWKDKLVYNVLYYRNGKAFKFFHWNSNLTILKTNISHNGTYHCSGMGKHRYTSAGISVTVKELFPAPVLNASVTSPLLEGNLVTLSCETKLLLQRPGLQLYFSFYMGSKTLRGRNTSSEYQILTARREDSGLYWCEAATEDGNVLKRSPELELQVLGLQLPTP

- Kd [1]: 3.78 µM
- Kd [2]: 6.78 µM
- Kd [3]: 3.49 µM
B1: eculizumab (antibody, human IgG2, kappa)
heavy: QVQLVQSGAEVKKPGASVKVSCKASGYIFSNYWIQWVRQAPGQGLEWMGEILPGSGSTEYTENFKDRVTMTRDTSTSTVYMELSSLRSEDTAVYYCARYFFGSSPNWYFDVWGQGTLVTVSSASTKGPSVFPLAPCSRSTSESTAALGCLVKDYFPEPVTVSWNSGALTSGVHTFPAVLQSSGLYSLSSVVTVPSSNFGTQTYTCNVDHKPSNTKVDKTVERKCCVECPPCPAPPVAGPSVFLFPPKPKDTLMISRTPEVTCVVVDVSQEDPEVQFNWYVDGVEVHNAKTKPREEQFNSTYRVVSVLTVLHQDWLNGKEYKCKVSNKGLPSSIEKTISKAKGQPREPQVYTLPPSQEEMTKNQVSLTCLVKGFYPSDIAVEWESNGQPENNYKTTPPVLDSDGSFFLYSRLTVDKSRWQEGNVFSCSVMHEALHNHYTQKSLSLSLGK
light: DIQMTQSPSSLSASVGDRVTITCGASENIYGALNWYQQKPGKAPKLLIYGATNLADGVPSRFSGSGSGTDFTLTISSLQPEDFATYYCQNVLNTPLTFGQGTKVEIKRTVAAPSVFIFPPSDEQLKSGTASVVCLLNNFYPREAKVQWKVDNALQSGNSQESVTEQDSKDSTYSLSSTLTLSKADYEKHKVYACEVTHQGLSSPVTKSFNRGEC
